Experimental data as given in the supplement of paper PMC10567573.

B1: PCDHGA10 (parent)
chain: FGIEIEVTDINDNAPKFQAENLDV

Variants of: B1
Assay: protein stability index of a GFP-peptide fusion (GPS, HEK-293T) (PSI 1-6); higher = more stable
Settings: c terminus: a fixed tail appended
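Also: lentivirally expressed fusions sorted by FACS into six bins by GFP to DsRed ratio, PSI derived from sequencing read proportions per bin multiplied by bin number.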

Protein stability index: each site, then its substitutions
Q18: A 2.88 | H 2.93 | T 2.77 | Y 1.53 | E 3.33 | L 2.26 | M 2.13 | F 1.68 | I 2.13 | K 3 | V 2.54 | N 3.25 | C 2.44 | P 2.41 | S 2.1 | R 2.08 | G 2.94 | W 1.93 | D 3.56
K16: C 2.45 | E 3.88 | W 1.72 | F 2.21 | S 2.52 | Q 3.35 | R 3.02 | Y 2.18 | A 2.53 | I 2.48 | P 3.31 | G 3.56 | D 3.46 | M 3.07 | V 2.64 | H 2.76 | L 2.31 | N 2.94 | T 2.91
I5: P 5.13 | F 3.49 | N 5.05 | S 5.39 | H 4.91 | L 3.94 | A 4.42 | T 5.08 | Q 4.71 | R 4.79 | Y 3.85 | C 4.28 | M 3.86 | K 4.92 | V 3.48 | E 5.17 | W 3.05 | G 5.02 | D 4.58
N21: S 2.54 | M 2.42 | F 1.84 | V 2.33 | C 2.47 | Y 1.73 | W 1.37 | K 3.25 | Q 2.8 | T 2.89 | E 3.46 | G 2.83 | H 2.82 | L 2.13 | R 2.07 | I 1.84 | P 2.6 | A 2.49 | D 3.65
E20: D 2.82 | F 2.51 | P 2.13 | I 2.72 | W 2.11 | K 2.08 | N 2.27 | C 1.61 | Q 2.4 | R 1.83 | S 2.71 | A 2.15 | V 1.91 | H 2.02 | T 2.34 | M 2.06 | L 1.33 | Y 2.59 | G 2.11
N13: M 2.08 | W 1.54 | Q 3.21 | G 2.99 | F 1.84 | V 2.27 | L 1.91 | P 2.83 | A 2.85 | R 2.67 | T 3.1 | I 2.66 | D 3.43 | H 2.36 | C 2.52 | Y 1.78 | E 3.35 | K 3.12 | S 2.48
D9: G 2.15 | Y 3.18 | P 2.53 | H 1.81 | C 1.95 | M 1.96 | N 2.73 | R 2.04 | E 2.69 | K 2.45 | A 1.98 | V 2.58 | F 2.69 | Q 2.15 | T 1.96 | I 1.32 | S 1.85
A14: H 2.79 | C 2.46 | K 3.1 | D 3.89 | W 1.67 | Y 1.71 | I 2.49 | L 1.98 | M 2.42 | G 3.08 | S 3.13 | T 2.9 | P 2.69 | F 2.35 | V 3.4 | E 3.83 | R 2.83 | N 3.35 | Q 3.58
T8: Q 2.78 | R 2.32 | G 3.27 | W 2.27 | M 2.19 | Y 1.17 | N 3.81 | C 2.48 | V 2.08 | E 3.32 | I 1.76 | H 2.78 | K 3.33 | S 2.77 | A 2.88 | L 1.89 | P 3.75 | F 1.68 | D 3.79
F17: Y 3.18 | M 3.58 | S 3.98 | E 4.81 | I 3.37 | V 3.65 | N 4.15 | D 4.36 | H 4.28 | W 2.52 | C 3.73 | R 3.9 | G 3.94 | L 3.33 | A 4.12 | P 4.03 | K 4.42 | Q 4.14 | T 4.14
E6: L 1.86 | Q 2.39 | V 2.04 | W 2.9 | S 2.69 | T 1.98 | C 1.58 | P 4.08 | H 2.19 | G 3.56 | N 3.02 | M 1.41 | F 2.43 | Y 2.23 | R 1.7 | I 2.05 | D 3.62 | K 2.77 | A 3.25
N11: P 2.73 | V 2.3 | E 2.94 | S 2.84 | G 2.66 | D 3.54 | F 1.33 | M 2.15 | C 2.28 | A 2.88 | R 2.73 | H 2.41 | L 1.77 | T 2.26 | I 2.04 | Y 1.76 | W 1.96 | K 2.99 | Q 2.52
V7: M 3.18 | R 4.14 | C 3.75 | A 4.33 | P 4.72 | H 4.74 | D 5.46 | S 4.63 | Y 2.93 | F 2.25 | E 4.74 | N 4.46 | I 2.29 | G 4.3 | W 1.78 | T 4.45 | L 2.45 | K 4.21 | Q 4.8
E4: S 2.5 | T 2.12 | L 2.28 | W 2.5 | Y 1.73 | P 4.33 | V 2.24 | R 2.18 | K 2.11 | N 3.34 | Q 2.47 | M 1.73
L22: A 3.34
A19: N 2.82 | M 2.53 | H 3.18 | T 2.84 | W 1.59 | C 2.59 | D 3.56 | P 2.6 | S 2.62 | F 2.42 | K 3.37 | V 2.37 | G 3.51 | R 3 | E 3.83 | L 2 | Y 1.95 | I 2.26 | Q 3.32
P15: I 2.25 | G 3.52 | F 1.84 | N 3.6 | Y 2.23 | C 2.5 | K 3.51 | D 3.62 | M 2.66 | Q 3.11 | W 2.05 | S 3.14 | H 2.73 | V 2.55 | A 3.37 | E 3.24 | T 3.41 | L 2.41 | R 3.36
I10: W 2.03 | H 4.04 | S 3.91 | K 4.61 | M 3.28 | P 3.83 | C 3.4 | E 4.23 | V 3.24 | Y 2.81 | Q 4.05 | L 2.63 | D 4.78 | R 3.73 | F 2.4 | T 3.28 | G 3.67 | N 4.14 | A 3.61
D12: T 1.99 | N 2.15 | M 1.75 | R 2.48 | F 1.94 | A 2.28 | G 2.58 | S 2.25 | K 2.98 | L 1.49 | H 2.16 | P 2.42 | Q 2.71 | V 2.05 | I 1.84 | Y 1.56 | W 1.6 | E 3.13 | C 1.8
